# Experimental data from patent US20190241886A1.
# Target: CD137 (soluble antigen for staining of yeast) (human) (UniProt Q07011)
# Experiment: flow cytometry of yeast displaying the scFv, stained with human CD137; number printed over the dot plot, y axis CD137 binding (FL2-A PE-A), x axis scFv display
# CD137 (soluble antigen for staining of yeast) (human), sequence (Q07011 24-186 limits assumed): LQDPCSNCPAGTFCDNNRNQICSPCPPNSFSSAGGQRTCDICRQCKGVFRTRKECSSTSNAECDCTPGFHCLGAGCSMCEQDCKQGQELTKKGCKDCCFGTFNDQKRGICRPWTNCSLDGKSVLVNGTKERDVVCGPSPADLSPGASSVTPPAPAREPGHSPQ
binder,measurement,value
"scFv of parental CD137 antibody TY21242 displayed on yeast (scFv, part only; not given: linker, Aga2 and tag, V domains shown, not shown: another chain or arm of the molecule; large carriers; small tags and cut ends) VL: DIQLTQSPSSLSASVGDRVTITCRASQSIGSYLAWYQQKPGKAPKLLIYDASNLETGVPSRFSGSGSGTDFTLTISSLQPEDFATYYCQQGYYLWTFGQGTKVEIK VH: EVQLVESGGGLVQPGGSLRLSCAASGFSLSTGGVGVGWIRQAPGKGLEWLALIDWADDKYYSPSLKSRLTISRDNSKNTLYLQLNSLRAEDTAVYYCARGGSDTVIGDWFAYWGQGTLVTVSS",Y,19200
